Reference: patent CN116284427A (SUNSHINE GUOJIAN PHARMACEUTICAL SHANGHAI CO LTD, dated 2023)
Values joined by “and” are separate entries in the source; they are usually repeats but may differ in a detail not shown here. Identical values can stand only once.

Assays:
[1] = molecular target: T1, MUC17 on LS174T cells (human, UniProt Q685J3 26-4493); experiment: flow cytometry on LS174T cells, PE goat anti-human Fc
[2] = molecular target: CD3 (CD3-TCR complex) on Promega PD1 effector cells (Jurkat T cells) (human); experiment: cell-based or functional assay
[3] = molecular target: T2, Human CD3 epsilon&CD3 delta Heterodimer Protein (human, UniProt P07766 23-126; P04234 22-105); experiment: ELISA, CD3 epsilon/delta heterodimer coated at 50 ng/mL, HRP goat anti-human Fc
T2 construct: Bought heterodimer; also called Human CD3 epsilon&CD3 delta Heterodimer蛋白; CD3抗原

[4] = molecular target: T1, MUC17 on LS174T cells; experiment: cell-based or functional assay
[5] = molecular target: T3, MUC17-ECD-His蛋白 (human, UniProt Q685J3 26-4393); experiment: ELISA, MUC17-ECD-His coated at 500 ng/mL, HRP goat anti-human Fc
T3 construct: extracellular domain; Made in HEK-293E; the signal peptide added at the N-terminus is not part of the purified protein; also called MUC17抗原

T2 sequence (P07766 23-126, stated change not applied, chain 1 of 2): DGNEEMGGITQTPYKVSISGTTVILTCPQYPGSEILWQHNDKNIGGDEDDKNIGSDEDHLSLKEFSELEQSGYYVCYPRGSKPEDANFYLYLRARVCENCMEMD
T2 sequence (P04234 22-105, stated change not applied, chain 2 of 2): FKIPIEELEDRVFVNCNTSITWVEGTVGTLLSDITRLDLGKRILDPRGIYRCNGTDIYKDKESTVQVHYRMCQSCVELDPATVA

Row | Binder | binding result [1] | EC 50 [2] | Top [2] | binding result [3] | IC 50 (CD3+T细胞杀伤LS174T细胞, CellTiter-Glo) [4] [pM] | EC 50 [5] [pM]
1 | anti-MUC17×CD3 BsAb CM5 (bispecific antibody, human IgG1, kappa) heavy: not shown light: QAVVTQEPSLTVSPGGTVTLTCRSSTGAVTTSNYANWVQQKPGQAPRGLIGGTNKRAPGVPARFSGSLLGGKAALTLSGAQPEDEAEYYCALWYSNLWVFGQGTKVEIKRTVAAPSVFIFPPSDEQLKSGTASVVCLLNNFYPREAKVQWKVDNALQSGNSQESVTEQDSKDSTYSLSSTLTLSKADYEKHKVYACEVTHQGLSSPVTKSFNRGEC | binds | 646 pM | 42300 | binds |  | 
2 | anti-MUC17×CD3 BsAb CM6 (bispecific antibody, human IgG1, kappa) heavy: not shown light: QAVVTQEPSLTVSPGGTVTLTCRSSTGAVTTSNYANWVQQKPGQAPRGLIGGTNKRAPGVPARFSGSLLGGKAALTLSGAQPEDEAEYYCALWYSNLWVFGQGTKVEIKRTVAAPSVFIFPPSDEQLKSGTASVVCLLNNFYPREAKVQWKVDNALQSGNSQESVTEQDSKDSTYSLSSTLTLSKADYEKHKVYACEVTHQGLSSPVTKSFNRGEC | binds | 1110 pM | 45800 | binds |  | 
3 | anti-MUC17×CD3 BsAb CM8 (bispecific antibody, human IgG1, kappa) heavy: not shown light: QAVVTQEPSLTVSPGGTVTLTCRSSTGAVTTSNYANWVQQKPGQAPRGLIGGTNKRAPGVPARFSGSLLGGKAALTLSGAQPEDEAEYYCALWYSNLWVFGQGTKVEIKRTVAAPSVFIFPPSDEQLKSGTASVVCLLNNFYPREAKVQWKVDNALQSGNSQESVTEQDSKDSTYSLSSTLTLSKADYEKHKVYACEVTHQGLSSPVTKSFNRGEC | binds | 1170 pM | 76700 | binds |  | 
4 | anti-MUC17×CD3 BsAb CM7 (bispecific antibody, human IgG1, kappa) heavy: not shown light: QAVVTQEPSLTVSPGGTVTLTCRSSTGAVTTSNYANWVQQKPGQAPRGLIGGTNKRAPGVPARFSGSLLGGKAALTLSGAQPEDEAEYYCALWYSNLWVFGQGTKVEIKRTVAAPSVFIFPPSDEQLKSGTASVVCLLNNFYPREAKVQWKVDNALQSGNSQESVTEQDSKDSTYSLSSTLTLSKADYEKHKVYACEVTHQGLSSPVTKSFNRGEC |  | 1410 pM | 80500 | binds | 280 | 
5 | 27A3人源化抗体(hu-27A3) (antibody, human IgG1, kappa, V domains shown, Humanized anti-MUC17 IgG1/kappa, made in HEK-293E; also called 抗MUC17的人源化单克隆抗体) VH: QVQLVQSGAEVKKPGASVKVSCKASGYSFTIYWMHWVRQAPGQGLEWIGMSHPSDSESRLNQKFKDRATLTVDKSTSTAYMELSSLRSEDTAVYYCSRPYYGSSAWFADWGQGTLVTVSA VL: DIVMTQSPDSLAVSLGERATINCKSSQSLLNSSNQKNYLAWYQQKPGQSPKLLIYFASTRESGVPDRFSGSGSGTDFTLTISSLQAEDVAVYYCQQHYSFPLTFGAGTKLELRR |  |  |  |  |  | 89.3
6 | 人源化抗CD3抗体huSP34 (antibody, human IgG1, kappa, V domains shown, Humanized SP34, IgG1/kappa; positive control for the CD3 arm) VH: EVQLVESGGGLVQPGGSLRLSCAASGFTFNTYAMNWVRQAPGKGLEWVARIRSKYNNYATYYADSVKDRFTISRDDSKNTLYLQMNSLRAEDTAVYYCVRHGNFGNSYVSWFAYWGQGTLVTVSS VL: QAVVTQEPSLTVSPGGTVTLTCRSSTGAVTTSNYANWVQQKPGQAPRGLIGGTNKRAPGVPARFSGSLLGGKAALTLSGAQPEDEAEYYCALWYSNLWVFGQGTKVEIKR |  | 730 pM and 624 pM |  | binds |  | 
